Publication doi:10.1101/2024.09.16.613335, “Structure-guided assembly of an influenza spike nanobicelle vaccine provides pan H1 intranasal protection” (bioRxiv, 2024)

Molecular target: the molecule itself
Experiment: cryo-EM structure

B1: hemagglutinin (HA) spike on spiked nanobicelles (SNB) purified from the Fluad vaccine (natural protein)
chain: not shown
- stoichiometry N: 3
